Columns and labels:
[1] = target: recombinant allophycocyanin of Agarophyton chilensis, αβ unit (Agarophyton chilensis); assay: SEC; Superdex 200 HiLoad 16/60; oligomer size estimated from a calibration curve of MW standards 1,750-670,000 Da (Bio-Rad gel filtration standard); oligomer of αβ units
[2] = target: native allophycocyanin of Agarophyton chilensis, αβ unit (Agarophyton chilensis); assay: as above

stoichiometry N [1]	stoichiometry N [2]	Substance
3		recombinant allophycocyanin of Agarophyton chilensis, αβ unit (complex)
	3	native allophycocyanin of Agarophyton chilensis, αβ unit (complex)

Source: article PMC7066465
